In US20110033448:

Target: T1, hCAP18 (propeptide of LL-37), P49913
T1 chain: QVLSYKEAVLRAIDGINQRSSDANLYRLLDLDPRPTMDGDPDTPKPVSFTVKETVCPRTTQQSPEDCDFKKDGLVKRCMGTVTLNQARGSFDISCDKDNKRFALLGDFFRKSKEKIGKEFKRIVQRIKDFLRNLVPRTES

B1: Proteinase 3 (protein)
chain: IVGGHEAQPHSRPYMASLQMRGNPGSHFCGGTLIHPSFVLTAAHCLRDIPQRLVNVVLGAHNVRTQEPTQQHFSVAQVFLNNYDAENKLNDVLLIQLSSPANLSASVATVQLPQQDQPVPHGTQCLAMGWGRVGAHDPPAQVLQELNVTVVTFFCRPHNICTFVPRRKAGICFGDSGGPLICDGIIQGIDSFVIWGCATRLFPDFFTRVALYVDWIRSTLR
- Western blot of cleavage of the 4 kD LL-37 peptide from hCAP18 in supernatants of activated neutrophils: the cleavage of the 4 kD LL-37 peptide can be blocked by pretreatment of neutrophils with the proteinase 3 inhibitors
